{"source": "patent US20120114590A1", "about": "(priority 2005, published 2012)", "molecules": {"B1": {"name": "murine zcytor19-Ig homodimer (Fc fusion, part only; not given: Ig Fc portion, mouse, UniProt Q8CGK5 21-227, looked up, part only)", "chain, part": "RPRLAPPRNVTLFSQNFTVYLTWLPGLGSPPNVTYFVTYQSYIKTGWRPVEHCAGIKALVCPLMCLKKLNLYSKFKGRVQAASAHGRSPRVESRYLEYLFDVELAPPTLVLTQMEKILRVNATYQLPPCMPSLELKYQVEFWKEGLGSKTLFPDTPYGQPVQIPLQQGASRRHCLSARTVYTLIDIKYSQFSEPSCIFLEAPGDKRA"}, "B2": {"name": "muzcytor19-Ig: murine homodimeric soluble receptor Ig fusion (protein)", "chain": "B1 chain, part", "modifications": "left off: a dimerising Fc or GST", "notes": "murine homodimeric soluble receptor Ig fusion"}, "B3": {"name": "huCRF2-4-Fc: homodimeric soluble receptor Fc fusion (protein)", "chain": "MVPPPENVRMNSVNFKNILQWESPAFAKGNLTFTAQYLSYRIFQDKCMNTTLTECDFSSLSKYGDHTLRVRAEFADEHSDWVNITFCPVDDTIIGPPGMQVEVLADSLHMRFLAPKIENEYETWTMKNVYNSWTYNVQYWKNGTDEKFQITPQYDFEVLRNLEPWTTYCVQVRGFLPDRNKAGEWSEPVCEQTTHDETVPS", "modifications": "left off: a dimerising Fc or GST", "notes": "homodimeric soluble receptor Fc fusion"}, "B4": {"name": "human zcytor19-Fc homodimer (Fc fusion, not shown: a dimerising Fc or GST)", "chain": "RPRLAPPQNVTLLSQNFSVYLTWLPGLGNPQDVTYFVAYQSSPTRRRWREVEECAGTKELLCSMMCLKKQDLYNKFKGRVRTVSPSSKSPWVESEYLDYLFEVEPAPPVLVLTQTEEILSANATYQLPPCMPPLDLKYEVAFWKEGAGNKTLFPVTPHGQPVQITLQPAASEHHCLSARTIYTFSVPKYSKFSKPTCFLLEVPEANWA"}, "B5": {"name": "human zcytor19-Fc homodimeric soluble receptor: homodimeric soluble receptor Fc fusion (protein)", "chain": "B4 chain", "modifications": "left off: a dimerising Fc or GST", "notes": "as for B3"}}, "key": {"[1]": {"tested_on": "liver, spleen and blood of mice", "assay": "ISG gene expression (OAS, Pkr, Mx1) in liver, spleen and blood of injected C57BL/6 mice (real-time PCR)", "type": "in vivo, mouse", "settings": "livers of mice, 100 μg i.v.", "procedure": "Mice were sacrificed at various time points (1 hr-48 hr). Spleens and livers were isolated from mice, and RNA was isolated. RNA was also isolated from the blood cells. The cells were pelleted and RNA isolated from pellets using RNAEasy®-kit (Qiagen). RNA was treated with DNase (Amicon) to rid RNA of any contaminating DNA. cDNA was generated using Perkin-Elmer RT mix (Perkin-Elmer). ISG gene induction was measured by real-time PCR using primers and probes specific for mouse OAS, Pkr and Mx1. To obtain quantitative data, HPRT real-time PCR was duplexed with ISG PCR. A standard curve was calculated using known amounts of IFN-stimulated mouse PBLs. All data are shown as expression relative to internal HPRT expression."}, "[2]": {"target": "T1, zcyto20 (human IL-28A) (human) (UniProt Q8IZJ0)", "T1 sequence": "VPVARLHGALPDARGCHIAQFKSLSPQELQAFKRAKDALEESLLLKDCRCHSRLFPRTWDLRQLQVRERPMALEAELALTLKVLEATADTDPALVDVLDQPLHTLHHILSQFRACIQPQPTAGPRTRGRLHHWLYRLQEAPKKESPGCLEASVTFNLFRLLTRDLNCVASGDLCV", "assay": "cell-based or functional assay"}, "[3]": {"target": "zcyto21 (human IL-29) (human) (UniProt Q8IU54)", "sequence (Q8IU54 20-200)": "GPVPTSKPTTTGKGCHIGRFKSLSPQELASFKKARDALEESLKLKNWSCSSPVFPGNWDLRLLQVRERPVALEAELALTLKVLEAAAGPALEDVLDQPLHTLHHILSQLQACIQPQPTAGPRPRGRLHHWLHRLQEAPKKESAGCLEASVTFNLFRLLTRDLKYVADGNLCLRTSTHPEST", "assay": "cell-based or functional assay"}, "[4]": {"target": "T2, zcyto24 (mouse IL-28A) (mouse) (UniProt Q4VK74)", "T2 sequence": "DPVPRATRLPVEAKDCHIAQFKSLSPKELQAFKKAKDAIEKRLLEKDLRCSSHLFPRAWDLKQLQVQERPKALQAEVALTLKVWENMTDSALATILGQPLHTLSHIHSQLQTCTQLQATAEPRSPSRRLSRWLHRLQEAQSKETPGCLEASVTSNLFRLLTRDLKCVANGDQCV", "assay": "cell-based or functional assay"}, "[5]": {"tested_on": "293 HEK cells overexpressing zcytor19", "assay": "Inhibition of ligand-induced ISRE-luciferase signaling by soluble receptors", "type": "cell-based, human", "settings": "10 micrograms/ml soluble receptor"}}}
{"molecule": "MetIL-29-PEG: E. coli derived pegylated Met IL-29", "values": [{"measurement": "Mx1 3 hr", "setting": "[1]; 3 hr", "value": "537.51 fold expression over HPRT expression"}, {"measurement": "OAS 3 hr", "setting": "[1]; 3 hr", "value": "91.29 fold expression over HPRT expression"}, {"measurement": "PKR 3 hr", "setting": "[1]; 3 hr", "value": "18.24 fold expression over HPRT expression"}, {"measurement": "Mx1 6 hr", "setting": "[1]; 6 hr", "value": "124.99 fold expression over HPRT expression"}, {"measurement": "OAS 6 hr", "setting": "[1]; 6 hr", "value": "65.93 fold expression over HPRT expression"}, {"measurement": "PKR 6 hr", "setting": "[1]; 6 hr", "value": "13.93 fold expression over HPRT expression"}, {"measurement": "Mx1 12 hr", "setting": "[1]; 12 hr", "value": "33.58 fold expression over HPRT expression"}, {"measurement": "OAS 12 hr", "setting": "[1]; 12 hr", "value": "54.04 fold expression over HPRT expression"}, {"measurement": "PKR 12 hr", "setting": "[1]; 12 hr", "value": "4.99 fold expression over HPRT expression"}, {"measurement": "Mx1 24 hr", "setting": "[1]; 24 hr", "value": "35.82 fold expression over HPRT expression"}, {"measurement": "OAS (24 hr)", "setting": "[1]; 24 hr", "value": "20.81 fold expression over HPRT expression"}, {"measurement": "PKR 24 hr", "setting": "[1]; 24 hr", "value": "3.77 fold expression over HPRT expression"}]}
{"molecule": "human zcytor19-Fc/human CRF2-4-Fc heterodimer (from UniProt Q08334 20-220) (Fc fusion)", "values": [{"measurement": "Percent Inhibition of Ligand-induced Interferon Stimulated Response Element (ISRE) Signaling by Soluble Receptors", "setting": "[2]", "value": 16, "unit": "%"}, {"measurement": "Percent Inhibition of Ligand-induced Interferon Stimulated Response Element (ISRE) Signaling by Soluble Receptors", "setting": "[3]", "value": 16, "unit": "%"}, {"measurement": "Percent Inhibition of Ligand-induced Interferon Stimulated Response Element (ISRE) Signaling by Soluble Receptors", "setting": "[4]", "value": 47, "unit": "%"}]}
{"molecule": "human CRF2-4-Fc homodimer (from UniProt Q08334 20-220) (Fc fusion)", "values": [{"measurement": "Percent Inhibition of Ligand-induced Interferon Stimulated Response Element (ISRE) Signaling by Soluble Receptors", "setting": "[2]", "value": 80, "unit": "%"}, {"measurement": "Percent Inhibition of Ligand-induced Interferon Stimulated Response Element (ISRE) Signaling by Soluble Receptors", "setting": "[3]", "value": 79, "unit": "%"}, {"measurement": "Percent Inhibition of Ligand-induced Interferon Stimulated Response Element (ISRE) Signaling by Soluble Receptors", "setting": "[4]", "value": 82, "unit": "%"}]}
{"molecule": "B1", "values": [{"measurement": "Percent Inhibition of Ligand-induced Interferon Stimulated Response Element (ISRE) Signaling by Soluble Receptors", "setting": "[2]", "value": 91, "unit": "%"}, {"measurement": "Percent Inhibition of Ligand-induced Interferon Stimulated Response Element (ISRE) Signaling by Soluble Receptors", "setting": "[3]", "value": 103, "unit": "%"}, {"measurement": "Percent Inhibition of Ligand-induced Interferon Stimulated Response Element (ISRE) Signaling by Soluble Receptors", "setting": "[4]", "value": 89, "unit": "%"}]}
{"molecule": "B2", "values": [{"measurement": "effect on ligand-induced signaling", "setting": "[5]", "value": "No significant effects"}]}
{"molecule": "B3", "values": [{"measurement": "effect on ligand-induced signaling", "setting": "[5]", "value": "No significant effects"}]}
{"molecule": "B4", "values": [{"measurement": "Percent Inhibition of Ligand-induced Interferon Stimulated Response Element (ISRE) Signaling by Soluble Receptors", "setting": "[2]", "value": 92, "unit": "%"}, {"measurement": "Percent Inhibition of Ligand-induced Interferon Stimulated Response Element (ISRE) Signaling by Soluble Receptors", "setting": "[3]", "value": 45, "unit": "%"}, {"measurement": "Percent Inhibition of Ligand-induced Interferon Stimulated Response Element (ISRE) Signaling by Soluble Receptors", "setting": "[4]", "value": 90, "unit": "%"}]}
{"molecule": "B5", "values": [{"measurement": "inhibition of zcyto2′-induced signaling", "setting": "[5]", "value": 45, "unit": "%"}]}
